Results taken from the supplement of paper PMC9112550, “Optimization of the antimicrobial peptide Bac7 by deep mutational scanning” (BMC Biology, 2022).

System: Escherichia coli TOP10
Assay: shrunken log2 fold change of peptide-encoding DNA abundance (4.5 h post-induction vs induction); higher = less antimicrobial activity (less host growth inhibition)
Settings: time post-induction: 4.5 h; library: site-saturation at positions 5, 18, 19, 20
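Also: peptides expressed intracellularly from a pBAD plasmid library in pooled LB shake-flask culture, induced with 0.3% L-arabinose, DNA abundance read by NGS, three biological replicates, DESeq2 with apeglm shrinkage.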

Sequence: RRIRCRPPRLPRPRPRPVNNPRP
- shrunken log2 fold change: -0.327

Sequence: RRIRPRPPRLPRPRPRPQQFPRP
- shrunken log2 fold change: -0.049

Sequence: RRIRERPPRLPRPRPRPDGGPRP
- shrunken log2 fold change: 0.0135

Sequence: RRIRVRPPRLPRPRPRPSEEPRP
- shrunken log2 fold change: 0.00143

Sequence: RRIRQRPPRLPRPRPRPKNRPRP
- shrunken log2 fold change: 0.0773

Sequence: RRIRLRPPRLPRPRPRPWWCPRP
- shrunken log2 fold change: -0.0878

Sequence: RRIRGRPPRLPRPRPRPVSNPRP
- shrunken log2 fold change: 0.568

Sequence: RRIRRRPPRLPRPRPRPAVWPRP
- shrunken log2 fold change: 0.399

Sequence: RRIRKRPPRLPRPRPRPDDAPRP
- shrunken log2 fold change: 1.47

Sequence: RRIRVRPPRLPRPRPRPHPSPRP
- shrunken log2 fold change: 0.168

Sequence: RRIRLRPPRLPRPRPRPNQNPRP
- shrunken log2 fold change: -0.276

Sequence: RRIRIRPPRLPRPRPRPKKAPRP
- shrunken log2 fold change: -0.209

Sequence: RRIRERPPRLPRPRPRPKIVPRP
- shrunken log2 fold change: -0.0778

Sequence: RRIRVRPPRLPRPRPRPQTSPRP
- shrunken log2 fold change: -0.0971

Sequence: RRIRWRPPRLPRPRPRPDWCPRP
- shrunken log2 fold change: 0.112

Sequence: RRIRTRPPRLPRPRPRPTNPPRP
- shrunken log2 fold change: -0.374

Sequence: RRIRARPPRLPRPRPRPPFQPRP
- shrunken log2 fold change: 0.415

Sequence: RRIRIRPPRLPRPRPRPEWGPRP
- shrunken log2 fold change: -0.0166

Sequence: RRIRVRPPRLPRPRPRPRTTPRP
- shrunken log2 fold change: 0.378

Sequence: RRIRLRPPRLPRPRPRPFKYPRP
- shrunken log2 fold change: -0.482

Sequence: RRIRLRPPRLPRPRPRPQHEPRP
- shrunken log2 fold change: -0.0398

Sequence: RRIRPRPPRLPRPRPRPNKQPRP
- shrunken log2 fold change: 0.0754

Sequence: RRIRIRPPRLPRPRPRPGTQPRP
- shrunken log2 fold change: -0.0235

Sequence: RRIRWRPPRLPRPRPRPWWMPRP
- shrunken log2 fold change: 0.388

Sequence: RRIRGRPPRLPRPRPRPVNKPRP
- shrunken log2 fold change: 0.0892

Sequence: RRIRHRPPRLPRPRPRPAACPRP
- shrunken log2 fold change: 0.066

Sequence: RRIRFRPPRLPRPRPRPMPLPRP
- shrunken log2 fold change: -0.417

Sequence: RRIRHRPPRLPRPRPRPSVLPRP
- shrunken log2 fold change: -0.242

Sequence: RRIRARPPRLPRPRPRPIRDPRP
- shrunken log2 fold change: 0.114

Sequence: RRIRHRPPRLPRPRPRPCWVPRP
- shrunken log2 fold change: -0.0013

Sequence: RRIRHRPPRLPRPRPRPHQPPRP
- shrunken log2 fold change: -0.0185

Sequence: RRIRSRPPRLPRPRPRPLWPPRP
- shrunken log2 fold change: 0.229

Sequence: RRIRGRPPRLPRPRPRPCANPRP
- shrunken log2 fold change: 0.0504

Sequence: RRIRNRPPRLPRPRPRPAIRPRP
- shrunken log2 fold change: -0.0992

Sequence: RRIRMRPPRLPRPRPRPMYDPRP
- shrunken log2 fold change: -0.0496

Sequence: RRIRGRPPRLPRPRPRPHNCPRP
- shrunken log2 fold change: -0.0265

Sequence: RRIRRRPPRLPRPRPRPSFEPRP
- shrunken log2 fold change: 0.234

Sequence: RRIRARPPRLPRPRPRPMVVPRP
- shrunken log2 fold change: -0.0787

Sequence: RRIRARPPRLPRPRPRPKKGPRP
- shrunken log2 fold change: 0.364

Sequence: RRIRQRPPRLPRPRPRPFSMPRP
- shrunken log2 fold change: -0.0842

Sequence: RRIRIRPPRLPRPRPRPREMPRP
- shrunken log2 fold change: 0.00525

Sequence: RRIRERPPRLPRPRPRPFWDPRP
- shrunken log2 fold change: 0.029

Sequence: RRIRDRPPRLPRPRPRPHDMPRP
- shrunken log2 fold change: -0.0819

Sequence: RRIRQRPPRLPRPRPRPHRPPRP
- shrunken log2 fold change: 0.0757

Sequence: RRIRNRPPRLPRPRPRPEWVPRP
- shrunken log2 fold change: 0.0314

Sequence: RRIRYRPPRLPRPRPRPLWVPRP
- shrunken log2 fold change: -0.0829

Sequence: RRIRCRPPRLPRPRPRPQMCPRP
- shrunken log2 fold change: -0.157

Sequence: RRIRGRPPRLPRPRPRPQFDPRP
- shrunken log2 fold change: 0.61

Sequence: RRIRPRPPRLPRPRPRPYYNPRP
- shrunken log2 fold change: -1.11

Sequence: RRIRCRPPRLPRPRPRPWGLPRP
- shrunken log2 fold change: -0.268

Sequence: RRIRTRPPRLPRPRPRPQKMPRP
- shrunken log2 fold change: 0.176

Sequence: RRIRYRPPRLPRPRPRPQQIPRP
- shrunken log2 fold change: -0.142

Sequence: RRIRMRPPRLPRPRPRPNHIPRP
- shrunken log2 fold change: -0.407

Sequence: RRIRHRPPRLPRPRPRPDCKPRP
- shrunken log2 fold change: -0.148

Sequence: RRIRSRPPRLPRPRPRPCRVPRP
- shrunken log2 fold change: 0.11

Sequence: RRIRSRPPRLPRPRPRPPNTPRP
- shrunken log2 fold change: 0.158

Sequence: RRIRDRPPRLPRPRPRPGWCPRP
- shrunken log2 fold change: 0.201

Sequence: RRIRRRPPRLPRPRPRPDVIPRP
- shrunken log2 fold change: -0.068

Sequence: RRIRIRPPRLPRPRPRPVWVPRP
- shrunken log2 fold change: 0.107

Sequence: RRIRSRPPRLPRPRPRPNDGPRP
- shrunken log2 fold change: -0.0933
